Laboratory results: IntAct's records for PubMed 30354839

B1: RNA-binding protein FUS (Homo sapiens), P35637 (parent)
chain: MASNDYTQQATQSYGAYPTQPGQGYSQQSSQPYGQQSYSGYSQSTDTSGYGQSSYSSYGQSQNTGYGTQSTPQGYGSTGGYGSSQSSQSSYGQQSSYPGYGQQPAPSSTSGSYGSSSQSSSYGQPQSGSYSQQPSYGGQQQSYGQQQSYNPPQGYGQQNQYNSSSGGGGGGGGGGNYGQDQSSMSSGGGSGGGYGNQDQSGGGGSGGYGQQDRGGRGRGGSGGGGGGGGGGYNRSSGGYEPRGRGGGRGGRGGMGGSDRGGFNKFGGPRDQGSRHDSEQDNSDNNTIFVQGLGENVTIESVADYFKQIGIIKTNKKTGQPMINLYTDRETGKLKGEATVSFDDPPSAKAAIDWFDGKEFSGNPIKVSFATRRADFNRGGGNGRGGRGRGGPMGRGGYGGGGSGGGGRGGFPSGGGGGGGQQRAGDWKCPNPTCENMNFSWRNECNQCKAPKPDGPGGGPGGSHMGGNYGDDRRGGRGGYDRGGYRGRGGDRGGFRGGRGGGDRGGFGPGKMDSRGEHRQDRRERPY
B2: RNA-binding protein Raly (Homo sapiens), Q9UKM9 (parent)
chain: MSLKLQASNVTNKNDPKSINSRVFIGNLNTALVKKSDVETIFSKYGRVAGCSVHKGYAFVQYSNERHARAAVLGENGRVLAGQTLDINMAGEPKPDRPKGLKRAASAIYSGYIFDYDYYRDDFYDRLFDYRGRLSPVPVPRAVPVKRPRVTVPLVRRVKTNVPVKLFARSTAVTTSSAKIKLKSSELQAIKTELTQIKSNIDALLSRLEQIAAEQKANPDGKKKGDGGGAGGGGGGGGSGGGGSGGGGGGGSSRPPAPQENTTSEAGLPQGEARTRDDGDEEGLLTHSEEELEHSQDTDADDGALQ

Experiments:
raly_mouse Raly, Q64012 = variants of: B1; conditions: with raly_mouse Raly
raly_mouse Raly, Q64012, sequence (Q64012 whole entry): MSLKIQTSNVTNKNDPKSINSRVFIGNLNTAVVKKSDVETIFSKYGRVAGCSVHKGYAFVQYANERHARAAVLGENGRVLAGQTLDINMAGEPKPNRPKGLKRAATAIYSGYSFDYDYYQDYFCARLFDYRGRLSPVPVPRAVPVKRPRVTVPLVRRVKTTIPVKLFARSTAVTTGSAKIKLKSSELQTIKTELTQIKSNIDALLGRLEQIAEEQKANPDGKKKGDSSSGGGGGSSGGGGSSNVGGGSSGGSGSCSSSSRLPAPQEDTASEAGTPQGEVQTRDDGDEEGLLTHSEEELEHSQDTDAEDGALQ

raly_human RALY, Q9UKM9 = variants of: B1; conditions: with raly_human RALY
fus_human FUS, P35637 = variants of: B2; conditions: with fus_human FUS

effect of a mutation on the interaction (raly_mouse Raly, Q64012) | effect of a mutation on the interaction (raly_human RALY, Q9UKM9) | effect of a mutation on the interaction (fus_human FUS, P35637) | Variant
with no effect | with no effect | – | R521C
with no effect | with no effect | – | R521H
with no effect | with no effect | – | P525L
– | – | with no effect | P148A;R149A
